In US8530168B2, “Fusion protein comprising a Caspase domain and a nuclear hormone receptor binding domain and methods and uses thereof” (Helmholtz Zentrum Munich Deutsches Forschungszentrum fuer …, priority 2007, dated 2013):

Legend:
HeLa cells = assay: Transient cotransfection with β-galactosidase reporter into HeLa cells; type: cell-based, human; details: 10^−8 M 4-OH-tamoxifen, Cre-ER(T2) as reference, range given jointly for HeLa and Pac2
Procedure: (§1) Results are shown as mean values of triplicate samples with standard deviation. (b) Transient cotransfection of a β-galactosidase reporter with a Cre-ER(T2), myrCasp8-ER(T2), or Casp9-ER(T2) expression plasmid into murine M5/N9 (black columns), human HeLa (grey columns) or zebrafish Pac2 (open columns) cells. 12 h following transfection, cells were cultured for 36 h with 4-OH-tamoxifen at 10^−8 M and the activity of β-galactosidase in cell lysates was determined. Values obtained from transfections of the Cre-ER(T2) vector were defined as reference. Results are shown as mean values of triplicate samples with standard deviation.
Transient transfections into M5/N9 and HeLa cells were performed with FuGene transfection reagent (Roche) following the manufacturer's instructions. Briefly, semiconfluent cultures in a 24-well plate were transfected in triplicate with 112 ng of the β-galactosidase expression vector CMVβ(Invitrogen) and the same amount of pCAG-Cre-ER(T2), pCAG-Casp8-ER(T2) or pCAG-Casp9-ER(T2) plasmid DNA. After 12 h 4-OH-tamoxifen was added at a concentration of 10^−8 M and the cultures were lysed at 48 h. Cell lysis and the measurement of β-galactosidase activity by chemiluminescence were performed with the β-galactosidase reporter gene assay (Roche) using a Centro LB960 plate luminometer (Berthold). […]

MEF5/N9 cells = assay: TUNEL in situ cell death detection assay of MEF5/N9 clones; type: cell-based, mouse; details: 10^−8 M 4-OH-tamoxifen
Excerpt: TUNEL, or terminal deoxynucleotidyl transferase-mediated dUTP nick end-labeling, is acknowledged as a method of choice in the rapid detection of DNA fragmentation that results from apoptotic signaling cascades (Gavrieli et al., J. Cell Biol., 119(3), 493-501 (1992)). Cleavage of genomic DNA during apoptosis may yield double-stranded, low molecular weight DNA fragments as well as single strand breaks (“nicks”) in high molecular weight DNA. Those DNA strand breaks can be identified by terminal deoxynucleotidyl transferase (TdT), which catalyzes polymerization of labeled nucleotides to free 3′-OH DNA ends in a template-independent manner. To detect 4-OH-tamoxifen induced cell death in MEF5/N9 cells, we applied the In Situ Cell Death Detection Kit, POD by Roche according to the manufacturer's instructions. Incorporated fluorescein is detected by anti-fluorescein antibody, conjugated with horse-radish peroxidase (POD). After substrate reaction, stained cells can be analyzed under light microscopy.
Two days prior to the TUNEL staining, round glass cover slips ([…]) were sterilized with 70% EtOH, dried under laminar flow and coated with Poly-L-lysine at a concentration of 50 μg/ml over night at 37° C., which allows a better attachment of cells on the cover slips. The following day, the cover slips were rinsed 3 times with PBS and dried for 1 hour under laminar flow. 2.5·10^5 cells were seeded onto cover slips in a 6-well plate. On the test day, medium was replaced either by fresh medium or medium supplemented with 10^−8 M 4-OH-tamoxifen. […] After fixation, cells were rinsed three times in PBS, covered with 100% methanol and incubated for 10 min or over night in a freezer and rinsed in PBS. Endogenous peroxidase activity was blocked by immersing cover slips for 10 min in 3% H2O2 in methanol prior to cell permeabilization. Cells were subsequently rinsed with PBS and incubated in permeabilization solution (0.1% Triton X-100 in freshly prepared 0.1% sodium citrate) for 2 min on ice. To generate a positive control, DNA strand breaks were induced by incubating permeabilized cells with 2 U/ml DNase I in 50 mM Tris-HCl, pH 7.5, 10 mM MgCl2, 1 mg/ml BSA for 10 min at room temperature, prior to labeling procedure. Cover slips were rinsed twice with PBS before incubating each sample with 25 μl TUNEL reaction mixture for 60 min at 37° C. in a humidified atmosphere in the dark. To avoid evaporative loss, cover slips were covered with parafilm. For a negative control 25 μl of Label solution without enzyme solution were added. Following labeling, cover slips were rinsed 3 times with PBS for 10 min each. To convert the fluorescence signal to a chromogenic signal, 25 μl of the POD solution were added on each sample which was covered with parafilm and incubated in a humidified chamber for 30 min at 37° C. Subsequently, cover slips were rinsed 3 times with PBS and incubated in freshly prepared 0.05% DAB in 0.1 M Tris-HCl (pH 7.4) supplemented with 0.02% H2O2 for 10-20 min at room temperature. The conversion procedure was controlled under a light microscope. The reaction was stopped with PBS until brown precipitates were well visible inside the cells. To remove DAB, cover slips were rinsed several times in PBS. Optionally, nuclear staining was performed by incubating cover slips for 15 min in 2.5 μg/ml DAPI diluted in PBS. Cover slips were mounted with a water-soluble, non-fluorescing mounting medium (Aqua-Poly/Mount; Polysciences Inc., Eppelheim, Germany) under SuperFrost slides (VWR International). Prior to the analysis of the samples under a light microscope, mounting medium was dried for 24 hours at room temperature.
To provide direct evidence for 4-OH-tamoxifen-induced apoptosis in MEF5/N9 clones expressing Caspase-8 or -9 fusion proteins, an in situ application of the TUNEL assay was performed. This method detects DNA fragmentation, one of the late events that result from apoptotic signaling cascades. […]

Pac2 cells = assay: Transient cotransfection with β-galactosidase reporter into Pac2 cells; type: cell-based, zebrafish; details: 10^−8 M 4-OH-tamoxifen, Cre-ER(T2) as reference, range given jointly for HeLa and Pac2
Procedure: as §1
PAC2 zebrafish fibroblasts were grown in Leibowitz's L15—with L-Glutamine medium supplemented with 1% Non-essential Amino Acids, 1% Penicillin/Streptomycin and 10% fetal calf serum (all Gibco) at 28° C. 3×10^6 Cells were transiently transfected with the plasmids CMVβ together with CAG-CreER(T2), CAG-myrCasp8ER(T2) or CAG-Casp9ER(T2) (500 ng each) using nanofectin transfection reagent (PAA). 24 hrs after transfection the medium was replaced and conditioned with 10^−8 M 4-OH-tamoxifen. Before lysis, the cells were incubated for another 24 hrs at 28°. […]

B1: Casp9full-ER(T2): full length murine Caspase-9 fused to ER(T2) ligand binding domain, SEQ ID NO: 29 (protein)
chain: MDEADRQLLRRCRVRLVSELQVAELWDALLSRELFTRDMIEDIQQAGSGSRRDQARQLVTDLETRGRQALPLFISCLEDTGQGTLASLLQSGRQAAKQDPEAVKPLDHLVPVVLGPMGLTAKEQRVVKLDPSQPAVGNLTPVVLGPEELWPARLKPEVLRPETPRPVDIGSGGAHDVCVPGKIRGHADMAYTLDSDPCGHCLIINNVNFCPSSGLGTRTGSNLDRDKLEHRFRWLRFMVEVKNDLTAKKMVTALMEMAHRNHRALDCFVVVILSHGCQASHLQFPGAVYGTDGCSVSIEKIVNIFNGSGCPSLGGKPKLFFIQACGGEQKDHGFEVACTSSQGRTLDSDSEPDAVPYQEGPRPLDQLDAVSSLPTPSDILVSYSTFPGFVSWRDKKSGSWYIETLDGILEQWARSEDLQSLLLRVANAVSAKGTYKQIPGCFNFLRKKLFFKTSVEPSAGDMRAANLWPSPLMIKRSKKNSLALSLTADQMVSALLDAEPPILYSEYDPTRPFSEASMMGLLTNLADRELVHMINWAKRVPGFVDLTLHDQVHLLECAWLEILMIGLVWRSMEHPVKLLFAPNLLLDRNQGKCVEGMVEIFDMLLATSSRFRMMNLQGEEFVCLKSIILLNSGVYTFLSSTLKSLEEKDHIHRVLDKITDTLIHLMAKAGLTLQQQHQRLAQLLLILSHIRHMSNKGMEHLYSMKCKNVVPLYDLLLEAADAHRLHAPTSRGGASVEETDQSHLATAGSTSSHSLQKYYITGEAEGFPATA
modifications: fusion protein Casp9full-ER(T2)
reduction of β-Galactosidase activity in presence of 4-OHT (HeLa cells): 91-93%
TUNEL result / apoptotic morphology (in words) (MEF5/N9 cells; 3 or 7 hours): typical apoptotic morphology
incubation time with 4-OH-tamoxifen at which TUNEL positive cells were detected (MEF5/N9 cells; fixation at 2, 3, 5 and 7 hours): 3 h
reduction of β-Galactosidase activity in presence of 4-OHT (Pac2 cells): 91-93%
